Measurements as given in patent US11945858B2, “Antibodies and antibody fragments against HNAV1.7 channel and their use in pain and cancer indications” (NATIONAL RESEARCH COUNCIL OF CANADA, priority 2018, dated 2024).
Entries after “also recorded” stand apart in the source; their conditions may differ.

Columns and labels:
[1] = test system: CHO-3E7; experiment: Cell-ELISA on live CHO-3E7 cells; assay type: cell-based, Chinese hamster; settings: hybridoma supernatant, OD450 nm
Protocol: Cell-ELISA. Sterile 96-well plates (Costar #3595) were pre-treated with 50 μl/well of branched polyethyleneimine (PEI, Sigma Cat #408727) at 25 μg/ml in PBS for 30 min at room temperature. PEI was removed and CHO-3E7 or hNAv1.7-CHO (ChanTest cat #CT4003) were seeded at 6×10^5 cells per well in FreeStyle F17 Expression Medium (Gibco Cat #A1383501) and incubated overnight at 37° C., 5% CO2. Microplates were blocked with Starting block (Thermofisher Cat #37538) for 30 min at room temperature, and 50 μl of hybridoma supernatants were added and incubated at 4° C. for 3 h. Plates were washed 5 times with PBS and incubated for one hour at 4° C. with 50 μl of secondary antibody HRP-conjugated F(ab′)2 goat anti-mouse IgG (H+L) (Jackson Immunoresearch #115-036-062) diluted 1/5000 in blocking buffer. After 10 washes with PBS, 50 μl of TMB substrate solution (Pierce Cat #34021) was added and further incubated for 60 min at room temperature. Twenty-five μl/well of stop solution ([…] 1M) was added and OD450 nm measurements were done using a microplate reader (Spectramax 340 PC, Molecular Devices).

[2] = test system: overlapping antigen-peptides derived from DIE3IR; experiment: ELISA of mAbs on overlapping antigen-peptides derived from DIE3IR; assay type: binding, human; settings: peptides coated 100-500 ng/well
Protocol: The peptides were custom-synthesized (Biomatik) and tested for antibody binding by ELISA. […] The wells were blocked with 1% BSA in TBS-T for 30 min and then incubated with 1:1000 dilution of anti-hNav1.7 mAb at room temperature (RT) for one hr. Following three TBS-T washes (3×5 min), mAb binding to peptides was detected by incubating with HRP-conjugated anti-mouse Fc antibody for 90 min at RT in TBS-T. The bound antibody was detected with SureBlue™ TMB reagent kit (KPL) by colorimetric measurement at 450 nm according to manufacturer's instructions.
To identify the epitope for mAb 3A8 on DIE3IR, seven overlapping antigen-peptides were generated (FIG. 15A) and an ELISA was performed to determine the binding between these peptides and the various mAb (FIGS. 15C to 15I).

[3] = target: T1, FC5DIE3IR (Homo sapiens, UniProt Q15858); experiment: Surface Plasmon Resonance of mAbs, FC5DIE3IR; assay type: binding
T1 construct: The supernatant was collected and loaded on a 5 ml MabSelect™ SuRe™ column; made in house; host or cells: CHO-3E7 (transient, pTT5 vector), purified from supernatant
Protocol: Surface Plasmon Resonance of mAbs. FC5 and FC5DIE3IR proteins were SEC purified using a Superdex 75 column (GE Healthcare) connected to an AKTAPurifier (GE Healthcare) in HBS-EP+ running buffer (10 mM HEPES, pH 7.4, containing 150 mM NaCl, 3 mM EDTA and 0.05% P20) at a flow rate of 1 ml/min. Monomeric eluted peaks were used to flow over Fc-capture 3A8 mAb surfaces. To prepare the 3A8 mAb surfaces, approximately 6000 RUs of anti-mouse IgG (GE Healthcare) was first immobilized on CM5 Series S sensor chips (GE Healthcare) at pH 5.0, using standard amine coupling methods previously reported (Hussack et al., 2011) and according to the manufacturer's instructions (GE Healthcare). HBS-EP running buffer used for SPR experiments. The mAb 3A8 was captured on the anti-mouse IgG surface using 10 μg/ml of mAb, 30 sec contact time and flow rate of 10 μl/min. IMAC-purified DI-D VHH was passed through a Superdex 75 (GE Healthcare) column for SEC purification in HBS-EP buffer (10 mM HEPES, pH 7.4, containing 150 mM NaCl, 3 mM EDTA and 0.005% P20), connected to an AKTAPurifier (GE Healthcare) at a flow rate of 1 ml/min. Test binding experiments of FC5 control and FC5DIE3IR involved flowing 1 μM concentrations of SEC-pure material over the mAb surface at a flow rate of 30 μl/min for 5 min. Surfaces could be regenerated using 10 mM glycine, pH 1.7, with a 120 sec pulse at 20 μl/min. All SPR experiments were evaluated with Biacore T200 Software v 3.0. For kinetic analysis, single cycle kinetic analysis was used by flowing a range of FC5DIE3IR concentrations (320 nM-20 nM) at a flow rate of 30 μl/min, with 600 sec contact time and 1200 sec dissociation. Regeneration conditions were the same as above. Data were fit to a 1:1 binding model and analyzed using the Biacore T200 Software v3.0.
Surfaces were regenerated by washing with running buffer (HBS-EP). Data were analyzed with BIAevaluation 4.1 software as described (Hussack et al., 2011) and affinities determined using the steady state binding model.
Surface Plasmon Resonance (SPR) for monoclonal antibodies.

[4] = target: T1, FC5DIE3IR; experiment: Hydrogen-Deuterium Exchange Mass Spectrometry (HDX-MS); assay type: binding; settings: labelling 1, 10 and 60 min

B1: 3A8: anti-hNav1.7 mouse monoclonal antibody, IgG2a, k; heavy chain SEQ ID NO: 12, light chain SEQ ID NO: 18 (antibody, V domains shown)
VH: QVQLQQPGAELVKPGASVKLSCKASGYTFTNYWMHWVKQRPGQGLEWIGEINPSNGRANYNEKFKSKATLTVDKSSSTAYMQLSSLTSEDSAVYYCARSPYGYYDYWGQGTTLTVSSAKTTAPSVYPLAP
VL: DVLMTQTPLSLPVSLGDQASISCRSSQSLLHSNGNTYFHWYLQKPGQSPKLLIYKVSNRFFGVPDRFSGSGSGTDFTLKISRVEAEDLGVYFCSQITHVPLTFGAGTKLELKRADAAPTVSIFPPSS
modifications: Heavy chain of the 3A8 antibody without leader sequence; Light chain of the 3A8 antibody without leader sequence
ELISA on live cells (duplicates) CHO-3E7 ([1]; duplicate 1): −0.027
ELISA on live cells (duplicates) CHO-3E7 ([1]; duplicate 2): −0.018
Peptide in which the binding motif resides / that is bound [2]: pep #2a
ka [3]: 7050 M⁻¹ s⁻¹
kd [3]: 0.000259 s⁻¹
Rmax (RU) ([3]; Fc-captured mAb, FC5-DIE3IR flowed, 25 °C): 80 RU
Binding to FC5DIE3IR (comment, in words) ([3]; SPR, 25 °C): bound specifically FC5DIE3IR; also recorded: strong and specific binding; also recorded: strongly and specifically bound; also recorded: extremely slow off rate
Stabilization of FC5DIE3IR in response to mAb binding (residues, differential HDX-MS) [4]: Asn121-Tyr134
